# Assay results from patent US11274129B2, “Methods for protein tyrosine phosphorylation profiling with variant SH2 domains” (priority 2016, dated 2022).
# B1: Triple mutant: TrM human Src SH2 domain variant with Thr183Val, Cys188Ala and Lys206Leu; His6/GST-tagged form SEQ ID NO: 11 (protein)
# chain: DSIQAEEWYFGKITRRESERLLLNAENPRGTFLVRESETVKGAYALSVSDFDNAKGLNVKHYLIRKLDSGGFYITSRTQFNSLQQLVAYYSKHADGLCHRLTTVCPTSK
# modifications: SH2 protein domain; TrM human Src SH2 domain
# Columns and labels:
# [1] = target: EGFR-pTyr^978 peptide PQRpYLVIQGD; details: peptide EGFR-pTyr^978 PQRpYLVIQGD; read-out: equilibrium dissociation constant (Kd); cited from earlier work
# [2] = target: ShcA-pTyr^239 peptide DHQpYYNDFPG; details: peptide ShcA-pTyr^239 DHQpYYNDFPG; read-out: equilibrium dissociation constant (Kd); cited from earlier work
# [3] = target: MidT-pTyr^324 peptide EPQpYEEIPIYL; details: peptide MidT-pTyr^324 EPQpYEEIPIYL; read-out: equilibrium dissociation constant (Kd); cited from earlier work
# [4] = target: VEGFR1-pTyr^1213 peptide DVRpYVNAAKF; details: peptide VEGFR1-pTyr^1213 DVRpYVNAAKF; read-out: equilibrium dissociation constant (Kd); cited from earlier work
# [5] = target: EGFR-pTyr^1110 peptide NPVpYHNQPLN; details: peptide EGFR-pTyr^1110 NPVpYHNQPLN; read-out: equilibrium dissociation constant (Kd); cited from earlier work
# Designed peptide GGpYGG = details: read-out: equilibrium dissociation constant (Kd); cited from earlier work
# [6] = test system: mixture of 54 different pTyr-including peptides derived from 54 TK activation loops; assay: Capture of pTyr-including peptides from a mixture of TK activation loop peptides, scheduled PRM; format: binding
# Description: Equal molar amounts (10 nmole) of the wild-type (wt) human Src SH2 domain and the DM and TrM human Src SH2 Superbinders (SEQ ID NO: 14 and 5, respectively) expressed with His6 and GST tags were used to capture pTyr-including peptides from a mixture of 54 different pTyr-including peptides (10 pmole each) derived from 54 TK activation loops. The isolated peptides were identified by PRM and quantified based on the corresponding MS peak area. 1.8% of the eluted peptides were injected into a Q-Exactive (Thermo Fisher) preceded with a nano-LC system.
# Shown are the amounts of pTyr-including peptides captured, based on the corresponding peak area of PRM signal, by each of the parent human Src SH2 domain and the DM and TrM human Src SH2 Superbinders.
# [7] = target: ShcA-pTyr^317 peptide DPSpYVNVQNL; details: peptide ShcA-pTyr^317 DPSpYVNVQNL; read-out: equilibrium dissociation constant (Kd); cited from earlier work
# [8] = target: RSKL-pTyr^423 peptide YQHpYDLDLKD; details: peptide RSKL-pTyr^423 YQHpYDLDLKD; read-out: equilibrium dissociation constant (Kd); cited from earlier work
molecule,measurement,setting,value
B1,Kd,[1],7.7 nM
same,Kd,[2],3.8 nM
same,Kd,[3],3.8 nM
same,Kd,[4],23 nM
same,Kd,[5],76 nM
same,Kd,Designed peptide GGpYGG,510 nM
same,number of the 54 pTyr-including peptides captured / detected by PRM,"[6]; 10 nmole SH2 domain, 10 pmole each peptide",54
same,PRM signal peak area,"[6]; BLK (pTyr389) IIDSEpYTAQEGAK, fragment ion b2","156,244"
same,PRM signal peak area,"[6]; BMX (pTyr566) YVLDDQpYVSSVGTK, fragment ion b2","151,470"
same,PRM signal peak area,"[6]; BTK (pTyr551) YVLDDEpYTSSVGSK, fragment ion b2","1,311,693"
same,PRM signal peak area,"[6]; DDR1 (pTyr796/797) NLYAGDpYpYR, fragment ion b2","337,871"
same,PRM signal peak area,"[6]; DDR2 (pTyr740/741) NLYSGDpYpYR, fragment ion y6","184,684"
same,PRM signal peak area,"[6]; EPHA1 (pTyr781) LLDDFDGTpYETQGGK, fragment ion y9","188,365"
same,PRM signal peak area,"[6]; EPHA2 (pTyr772) VLEDDPEATpYTTSGGK, fragment ion y11","347,030"
same,PRM signal peak area,"[6]; EPHA3 (pTyr779) VLEDDPEAApYTTR, fragment ion y8","394,218"
same,PRM signal peak area,"[6]; EPHA6 (pTyr830) VLEDDPEAApYTTTGGK, fragment ion b2","287,653"
same,PRM signal peak area,"[6]; EPHA8 (pTyr793) VLEDDPDAApYTTTGGK, fragment ion y11","585,234"
same,PRM signal peak area,"[6]; EPHB1 (pTyr778) YLQDDTSDPTpYTSSLGGK, fragment ion y10","205,974"
same,PRM signal peak area,"[6]; EPHB2 (pTyr780) FLEDDTSDPTpYTSALGGK, fragment ion Y3","215,302"
same,PRM signal peak area,"[6]; EPHB3 (pTyr792) FLEDDPSDPTpYTSSLGGK, fragment ion y10","260,454"
same,PRM signal peak area,"[6]; EPHB4 (pTyr774) FLEENSSDPTpYTSSLGGK, fragment ion y10","134,156"
same,PRM signal peak area,"[6]; ERBB2 (pTyr877) LLDIDETEpYHADGGK, fragment ion b3","42,655"
same,PRM signal peak area,"[6]; ERBB3 (pTyr866) QLLpYSEAK, fragment ion y2","164,128"
same,PRM signal peak area,"[6]; FER (pTyr714) QEDGGVpYSSSGLK, fragment ion y7","27,417"
same,PRM signal peak area,"[6]; FES (pTyr713) EEADGVpYAASGGLR, fragment ion y8","25,101"
same,PRM signal peak area,"[6]; FGFR1 (pTyr653/654) DIHHIDpYpYK, fragment ion b6","51,243"
same,PRM signal peak area,"[6]; FGFR2 (pTyr656/657) DINNIDpYpYK, fragment ion y4","87,143"
same,PRM signal peak area,"[6]; FGFR3 (pTyr647/648) DVHNLDpYpYK, fragment ion b3","258,435"
same,PRM signal peak area,"[6]; FGFR4 (pTyr642/643) GVHHIDpYpYK, fragment ion b3","36,105"
same,PRM signal peak area,"[6]; FRK (pTyr387) VDNEDIpYESR, fragment ion y6","290,546"
same,PRM signal peak area,"[6]; GSK3 (pTyr279/216) GEPNVSpYICSR, fragment ion y6","48,337"
same,PRM signal peak area,"[6]; HCK (pTyr411) VIEDNEpYTAR, fragment ion b2","383,521"
same,PRM signal peak area,"[6]; INSRR (pTyr1145/1146) DVYETDpYpYR, fragment ion y5","20,796"
same,PRM signal peak area,"[6]; ITK (pTyr512) FVLDDQpYTSSTGTK, fragment ion y11","403,125"
same,PRM signal peak area,"[6]; JAK1 (pTyr1034/1035) EpYpYTVK, fragment ion y2","109,611"
same,PRM signal peak area,"[6]; JAK2 (pTyr221) IQDpYHILTR, fragment ion Y3","85,513"
same,PRM signal peak area,"[6]; JAK3 (pTyr980/981) DpYpYVVR, fragment ion y2","19,712"
same,PRM signal peak area,"[6]; KIT (pTyr823) NDSNpYVVK, fragment ion b2","234,665"
same,PRM signal peak area,"[6]; LMTK2 (pTyr295) EDpYIETDDK, fragment ion b2","20,896"
same,PRM signal peak area,"[6]; LMTK3 (pTyr296/297) EDpYpYLTPER, fragment ion y3","375,974"
same,PRM signal peak area,"[6]; MERTK (pTyr753/754) IYSGDpYpYR, fragment ion b2","26,483"
same,PRM signal peak area,"[6]; MET (pTyr1234/1235) EpYpYSVHNK, fragment ion y2","111,218"
same,PRM signal peak area,"[6]; MUSK (pTyr755/756) NIYSADpYpYK, fragment ion y2","178,086"
same,PRM signal peak area,"[6]; NTRK1 (pTyr680/681) DIYSTDpYpYR, fragment ion b2","103,368"
same,PRM signal peak area,"[6]; NTRK2 (pTyr706/707) DVYSTDpYpYR, fragment ion y4","114,762"
same,PRM signal peak area,"[6]; PGFRB (pTyr857) DSNpYISK, fragment ion y2","398,271"
same,PRM signal peak area,"[6]; PTK7 (pTyr960/961) DVYNSEpYpYHFR, fragment ion b2","8,863"
same,PRM signal peak area,"[6]; RET (pTyr905) DVYEEDSpYVK, fragment ion b2","882,529"
same,PRM signal peak area,"[6]; RON (pTyr1238/1239) EpYpYSVQQHR, fragment ion y4","44,290"
same,PRM signal peak area,"[6]; ROR1 (pTyr645/646) EIYSADpYpYR, fragment ion y6","177,244"
same,PRM signal peak area,"[6]; ROR2 (pTyr645/646) EVYAADpYpYK, fragment ion y5","334,295"
same,PRM signal peak area,"[6]; SRC (pTyr419) LIEDNEpYTAR, fragment ion b2","99,515"
same,PRM signal peak area,"[6]; SRMS (pTyr380) DDIpYSPSSSSK, fragment ion y8","478,598"
same,PRM signal peak area,"[6]; TEC (pTyr519) YVLDDQpYTSSSGAK, fragment ion b2","781,110"
same,PRM signal peak area,"[6]; TIE1 (pTyr1007) GEEVpYVK, fragment ion b2","409,242"
same,PRM signal peak area,"[6]; TIE2 (pTyr992) GQEVpYVK, fragment ion b2","209,701"
same,PRM signal peak area,"[6]; TXK (pTyr420) YVLDDEpYVSSFGAK, fragment ion b2","271,650"
same,PRM signal peak area,"[6]; TYK2 (pTyr1054/1055) AVPEGHEpYpYR, fragment ion y6","53,473"
same,PRM signal peak area,"[6]; VGFR1 (pTyr1053) NPDpYVR, fragment ion y3","158,244"
same,PRM signal peak area,"[6]; VGFR2 (pTyr1059) DPDpYVR, fragment ion Y3","196,659"
same,Kd,[7],7.5 nM
same,Kd,[8],13 nM
